# From patent US7265091B2, “Methods and compositions for treating male erectile dysfunction” (The Regents of the University of California, priority 2000, dated 2007)
# B1: NT-4: neurotrophin-4 (protein, UniProt P34130 81-210, looked up)
# Neurotrophin-4: GVSETAPASRRGELAVCDAVSGWVTDRRTAVDLRGREVEVLGEVPAAGGSPLRQYFFETRCKADNAEEGGPGAGGGGCRGVDRRHWVSECKAKQSYVRALTADAQGRVGWRWIRIDTACVCTLLSRTGRA
# B2: BDNF: brain-derived neurotrophic factor added to MPG culture medium (Examples 7, 8) (protein, UniProt P23560 19-247, looked up)
# Neurotrophic factor BDNF …: APMKEANIRGQGGLAYPGVRTHGTLESVNGPKAGSRGLTSLADTFEHVIEELLDEDQKVRPNEENNKDADLYTSRVMLSSQVPLEPPLLFLLEEYKNYLDAANMSMRVRRHSDPARRGELSVCDSISEWVTAADKKTAVDMSGGTVTVLEKVPVSKGQLKQYFYETKCNPMGYTKEGCRGIDKRHWNSQCRTTQSYVRALTMDSKKRIGWRFIRIDTSCVCTLTIKRGR
# Key:
# [1] = system: venogenic erectile dysfunction in castrated rats; experiment: Pharmacologic cavernosometry, prevention trial in castrated rats (Experiment 2); type: in vivo, rat; conditions: castrated rats treated at castration, cavernosometry 9 weeks after castration
# From the text: For the prevention trial of VEGF in rats with venogenic erectile ED, adult males were castrated and immediately treated with hormone, intracavernosal VEGF. […] Control animals received an silastic implant containing saline (n=3), an intracavernous injection of normal saline (n=3) or an […] transfection vector expressing lacZ reporter gene without the VEGF gene (AAV-LacZ, n=11).
# A 1.5 cm oblique incision was made in the lower abdominal skin extending from the midline just above the penile hilum to below the level of the glans about 1 cm lateral to the midline. The skin was sharply dissected from the anterior surface of the penis and then the penis was retracted anteriorly using a towel clamp placed around it atraumatically with the foreskin left intact. Using blunt dissection the penile base and crura were exposed. The ischiocavernosus muscles were sharply dissected off the anterior surface of the crus until the white of the tunica albuginea of the corpora cavernosa was identified. The crus was then gently cannulated using a 23 gage butterfly needle, and saline flush with a visual erectile response was used to confirm that the needle tip was truly intracavernosal. The intracavernosal injections were then administered with either VEGF protein (Calbiochem, La Jolla, Calif. #676472) at the dosage 4 ug/injection (in 0.1 cc PBS with 0.1% BSA), AAV-VEGF (10^10 viral particles in 0.1 cc NS), AAV-LacZ (10^10 viral particles in 0.1 cc NS), or 0.1 ml NS alone. The AAV-VEGF and AAV-LacZ constructs were a generous gift from Dr. Yuet W. Kan (Howard Hughes Medical Research Institute, San Francisco, Calif.).^19,20 Following injection, the needle was left in place for 5 minutes and then removed to allow the medication to diffuse throughout the cavernosal space. Immediately thereafter, pinpoint electrocautery was applied to the needle hole for hemostasis and then the wound was closed and the animal recovered as above.
# (§1) Following castration, testosterone- or saline-filled silastic implants were placed in the subcutaneous tissue of the anterior abdominal wall, as previously described.^17 Implants were prepared using sterile silastic tubing (Dow Coming, Midland, Mich. #602-265, inner diameter 0.062″) that was filled with testosterone propionate powder (Sigma Chemical, St. Louis, Mo.) with the aid of wall suction.
# To perform pharmacologic cavemosometry, both the right and left crura were separately cannulated using 23 gauge butterfly needles as described above. One cannula was flushed with sterile heparinized saline (100 U heparin/ml NS) and attached to a pressure detector for continuous intracorporal pressure (ICP) monitoring as previously described.^11 The contralateral cannula was attached to an infusion pump (Harvard Pump, Southwick, Mass. #55-2222), filled with sterile dilute heparinized saline (20 U heparin/ml NS). The baseline ICP was recorded (flaccid ICP) and then a dose of papavarine (1 mg in 0.1 cc NS) was administered through the infusion cannula. Five minutes was allowed for the papavarine to diffuse throughout the corpora and then the infusion cannula was flushed with heparinized saline and the pressure monitor cannula vented to normalize ICP after flushing. After 5 minutes more, the ICP was again recorded (ICP after papavarine) and the infusion started. An infusion rate of 0.05 ml/min was started and increased (by 0.05 ml/min every 10 seconds) until the ICP started to rise. Subsequent increases in inflow rate were made only after the ICP reached a plateau pressure. By slowly adjusting the inflow rate, an intracorporal pressure of 100 cm H2O (erectile pressure) was reached and the infusion rate required to maintain this pressure recorded (the maintenance rate). After this pressure was steady for 20 seconds, the infusion was terminated and the change in ICP over the subsequent 60 seconds was recorded (the drop rate).
# [2] = system: penile smooth muscle (alpha actin); experiment: Alpha-smooth muscle actin immunohistochemistry of rat penis with image analysis; type: in vivo; conditions: castrated rats
# Method: Frozen sections were cut at 10 microns, adhered to charged slides, air dried for 15 minutes then rehydrated with 0.05M PBS for 5 minutes. […] The serum solution was drained and then sections were incubated for 60 minutes with mouse monoclonal anti-alpha-smooth muscle actin (Sigma, St. Louis, Mo.) at a dilution of 1:4000 in PBS. […] Immunochemistry was performed in penile tissues from 4 rats randomly chosen from each subgroup.
# Cross-sectional micrographs of the rat penis at the proximal shaft were examined after immunohistochemistry for alpha actin. Alpha actin, a marker for penile smooth muscle, stains brown and can be seen surrounding the sinusoidal spaces. […] Computerized image analysis with Adobe Photoshop was used to quantify the area of immunostaining by counting the number of digitized pixels corresponding to the area of brown staining, thereby providing some numerical comparison of the quantity of smooth muscle in each specimen.
# [3] = system: dorsal nerve, intracavernous smooth muscle cells and endothelial cells; experiment: Transmission electron microscopy of penile tissue (Example 2); type: in vivo, rat; conditions: castrated rats, testosterone replacement
# From the text: Thick sections were cut and stained with toluidine blue to select specific areas for thin sectioning. Thin sections were cut, stained with both uranyl acetate and Reynold's Lead, and examined under the Phillips Tecnai 10 transmission electron microscope. Penile tissues from 4 randomly chosen rats in each subgroups were subjected to electron microscopic examinations.
# [4] = Serum testosterone radioimmunoassay; type: in vivo, rat; conditions: castrated rats given subcutaneous testosterone implants
# Method: as §1
# [5] = system: major pelvic ganglia (MPG); experiment: Nerve fiber outgrowth from cultured major pelvic ganglia; type: cell-based, rat; parameters: Average fiber length / FIBER LENGTH (average lengths of the growing fibers): unit not given here
# Method: Each freshly isolated MPG was cut into 8 pieces of approximately equal size and each piece was then attached to a Matrigel-coated coverslip. The MPG pieces were cultured in serum-free medium supplemented with phosphate-buffered saline (PBS, control), 50 ng/ml of vascular endothelial growth factor (VEGF), 20 ng/ml of brain-derived neurotrophic factor (BDNF), or VEGF+BDNF. After 2 days of incubation, the ganglial tissues with their outgrowing nerve fibers were stained for the expression of NADPH diaphorase and acetylcholinesterase (AchE).
# We have been using several experimental systems to test the efficacy of combination growth factor therapies for impotence. One system employs cultured rat major pelvic ganglia (MPG) that are known to innervate all urogenital organs, including the penis. We discovered that the cultured MPG are able to sprout new nerve fibers (nerve regeneration) from the axonal ends during the first 3 days of culture, especially when treated with VEGF, BDNF, NT-3, or NT-4.
# [6] = system: Animal Model for Neurogenic Impotence; experiment: Maximal intracavernous pressure on electrostimulation after bilateral cavernous nerve freezing (Example 3); type: in vivo, rat; conditions: 8 weeks after bilateral cavernous nerve freezing
# From the text: Male Sprague-Dawley rats (N=34; age, 3 months; weight, 350 to 400 gm.) were divided into two groups: sham (N=10) and experimental (N=24). The rats in the sham group underwent periprostatic dissection and identification of bilateral cavernous nerves without other manipulation; those in the experimental groups underwent bilateral cavernous nerve freezing. Several minutes after surgery, half of the experimental animals (LacZ group, N=12) received intracavernous AAV-LacZ injection, and the remainder (BDNF group, N=12) received AAV-BDNF. Half of the rats in each group were sacrificed at week 4 and the rest at week 8 for collection of penile tissue. In all animals, erectile function was assessed by electrostimulation of the cavernous nerves before sacrifice.
# Under intraperitoneal pentobarbital sodium anesthesia (50 mg./kg.), each animal was placed on a heating pad to maintain its body temperature at 37° C. […]
# At weeks 4 and 8 postoperatively, rats in each group were re-explored for direct electrostimulation of the cavernous nerves before tissue collection. […] Each cavernous nerve was stimulated and intracavernous pressures were measured and recorded with a Macintosh computer programmed with LabVIEW 4.0 software (National Instruments, Austin, Tex.). The pressure for each animal was determined by the mean of both sides.
# [7] = system: NADPH diaphorase-positive nerve fibers and neurons; experiment: NADPH diaphorase staining of penile tissue and major pelvic ganglia; type: in vivo, rat
# Method: Sections were incubated with 0.1 mM. NADPH, 0.2 mM. nitroblue tetrazolium, 0.2% Triton X-100 in 0.1 M. PO4, pH 8.0, for 60 min. at room temperature. The reaction was terminated by washing in buffer. Slides were then coverslipped with buffered glycerin as the mounting medium.^13
# The presence of NADPH diaphorase-positive nerves was evidenced as a blue stain in the major pelvic ganglia, dorsal nerves and cavernous tissue, and the staining pattern was assessed by counting the number of positive neurons in 4 random fields (magnification 400×). The percentage of darkly and lightly stained cells in the major pelvic ganglia was calculated by dividing the number of these cells by the total number of positive cells.
# [8] = system: Erectile Dysfunction Induced by Hypercholesterolemia in a Rat Model; experiment: Erectile function in rats fed a high cholesterol diet (Example 5); type: in vivo; conditions: 6 months cholesterol diet, 4 months after intracavernous treatment
# Method: Twenty-one Sprague-Dawley rats were used. All rats were fed a 2.5% cholesterol diet with added lard starting at 2 weeks of age for 6 months. The rats were divided into three groups. All groups after two months of a high cholesterol diet underwent serum evaluation of cholesterol and intracavernous injection of saline or treatment. Group 1, the control group, received intracavernous injection of saline, group 2, the VEGF group, received intracavernous injection of 4 ug of VEGF, and group 3, the AAV-BDNF group received 15 ug of BDNF. After six months of cholesterol diet and 4 months of treatment, all rats were subjected to cavernous nerve electrostimulation, cavernosometry with intracavernous papaverine injection, and infusion cavernosometry with heparinized saline to measure erectile function.
# [9] = system: cavernous nerve injury in rats; experiment: Maximal intracavernous pressure after bilateral cavernous nerve freezing (Example 9, VENT); type: in vivo, rat; conditions: 3 months after bilateral cavernous nerve freezing, intracavernous injection
# Method: (§2) Three months old Sprague-Dawley rats (N=30) were used: 6 underwent a sham operation; 24 underwent bilateral cavernous nerve freezing and then randomly divided into four groups of 6 each. The four groups of rats received intracavernous injection of one of the following: 1) phosphate buffered saline (PBS), 2) VEGF protein (4 μg), 3) adeno-associated virus (AAV)-BDNF, and 4). VEGF+AAV-BDNF. Erectile function was assessed by cavernous nerve electrostimulation 3 months later and samples of penile tissue were obtained for electron microscopy and immunohistochemical studies.
# [10] = system: blood vessels and nerve fibers in the penis; experiment: Penile tissue histology, nNOS staining and electron microscopy (Example 9); type: in vivo, rat; conditions: 3 months after bilateral cavernous nerve freezing
# Method: as §2
# [11] = 50 ng/ml VEGF, 20 ng/ml BDNF, 2 days of incubation
molecule,measurement,setting,value
"CCC(=O)O[C@H]1CC[C@H]2[C@@H]3CCC4=CC(=O)CC[C@]4(C)[C@H]3CC[C@]12C [Testosterone, testosterone propionate, reference compound]",Drop Rate in 1 min.,[1],11.7(+/−16) cm H2O
same,Flaccid ICP,[1],28.9 cm H2O
same,ICP After Papavarine,[1],87.7(+/−26) cm H2O
same,Maintenance Rate,[1],0.09(+/−0.1) ml/min
same,"quantity of penile smooth muscle, qualitative",[2],returns to normal morphology
same,nerve fibers and myelin sheath appearance,[3],appeared similar to the sham group
same,serum testosterone titer,[4],in the normal range
B1,FIBER LENGTH (average lengths of the growing fibers),[5]; 48 hours after culturing,81
B2,Maximal intracavernous Pressure In Response to Electrostimulation,[6],61.3 ± 12.5 cm H2O
same,"NADPH Diaphorase-positive Nerve Fibers, Cavernous Tissue",[7]; 4 Weeks,45.5 ± 10.5
same,"NADPH Diaphorase-positive Nerve Fibers, Dorsal Nerve",[7]; 4 Weeks,65.5 ± 15.5
same,"NADPH Diaphorase-positive Neurons in the Major Pelvic Ganglion, % Dark Stain",[7]; 4 Weeks,62.1 ± 13.1 %
same,"NADPH Diaphorase-positive Neurons in the Major Pelvic Ganglion, % Light Stain",[7]; 4 Weeks,38.6 ± 11.8%
same,"NADPH Diaphorase-positive Neurons in the Major Pelvic Ganglion, Dark Stain",[7]; 4 Weeks,61.8 ± 23.7
same,"NADPH Diaphorase-positive Neurons in the Major Pelvic Ganglion, Light Stain",[7]; 4 Weeks,33.8 ± 9
same,"NADPH Diaphorase-positive Neurons in the Major Pelvic Ganglion, Total",[7]; 4 Weeks,95.7 ± 22.4
same,"NADPH Diaphorase-positive Nerve Fibers, Cavernous Tissue",[7]; 8 Weeks,66.1 ± 15.2
same,"NADPH Diaphorase-positive Nerve Fibers, Dorsal Nerve",[7]; 8 Weeks,86.4 ± 12.2
same,"NADPH Diaphorase-positive Neurons in the Major Pelvic Ganglion, % Dark Stain",[7]; 8 Weeks,64.3 ± 10.7 %
same,"NADPH Diaphorase-positive Neurons in the Major Pelvic Ganglion, % Light Stain",[7]; 8 Weeks,35.6 ± 10.7%
same,"NADPH Diaphorase-positive Neurons in the Major Pelvic Ganglion, Dark Stain",[7]; 8 Weeks,69.4 ± 21.1
same,"NADPH Diaphorase-positive Neurons in the Major Pelvic Ganglion, Light Stain",[7]; 8 Weeks,38.4 ± 14
same,"NADPH Diaphorase-positive Neurons in the Major Pelvic Ganglion, Total",[7]; 8 Weeks,107.8 ± 23.58
same,"sustained intracavernous pressures during the pharmacologic erection phase of cavernosometry, vs high cholesterol controls",[8],significantly higher
same,AchE staining intensity,[5]; [11],"1,102±211 IDV"
same,NADPH staining intensity,[5]; [11],"9,376±111 IDV"
same,"maximal intracavernous pressure (MICP), mean±SEM",[9],69.75±8.54 cm H2O
same,nNOS positive nerve fibers in the dorsal nerves compared to PBS group,[10],increased number
